# From paper PMC6648591 (ACS Omega, 2019)
# Non-standard residues stand in square brackets, D forms with d. No end group written: not given here. pGlu = O=C1CC[C@@H](C(=O)O)N1
# B1: propeptide: Cleaved propeptide, separated from the mature enzyme, residues 30–94 (protein)
# chain: [pGlu]SNSTVDSLPPLIPSRTSAPSSSPSTTDPEAPAMSRNGPLPSDVETKYGMALNATSYPDSVVQAM
# modifications: also: N-glycosylation (GlcNAc after EndoH), site not given here, hexose at O-glycosylation site, site not given here
# B2: mature RmL: the mature wild-type enzyme without propeptide, residues 95–363 (protein)
# chain: SIDGGIRAATSQEINELTYYTTLSANSYCRTVIPGATWDCIHCDATEDLKIIKTWSTLIYDTNAMVARGDSEKTIYIVFRGSSSIRNWIADLTFVPVSYPPVSGTKVHKGFLDSYGEVQNELVATVLDQFKQYPSYKVAVTGHSLGGATALLCALDLYQREEGLSSSNLFLYTQGQPRVGDPAFANYVVSTGIPYRRTVNERDIVPHLPPAAFGFLHAGEEYWITDNSPETVQVCTSDLETSDCSNSIVPFTSVLDHLSYFGINTGLCT
# B3: L81V: activity-related propeptide mutation L81V of R. miehei lipase identified in ref 17 (protein, UniProt P19515 25-363, looked up, variant L81V)
# pro-form: VPIKRQSNSTVDSLPPLIPSRTSAPSSSPSTTDPEAPAMSRNGPLPSDVETKYGMAVNATSYPDSVVQAMSIDGGIRAATSQEINELTYYTTLSANSYCRTVIPGATWDCIHCDATEDLKIIKTWSTLIYDTNAMVARGDSEKTIYIVFRGSSSIRNWIADLTFVPVSYPPVSGTKVHKGFLDSYGEVQNELVATVLDQFKQYPSYKVAVTGHSLGGATALLCALDLYQREEGLSSSNLFLYTQGQPRVGDPAFANYVVSTGIPYRRTVNERDIVPHLPPAAFGFLHAGEEYWITDNSPETVQVCTSDLETSDCSNSIVPFTSVLDHLSYFGINTGLCT
# modifications: pro-form
# B4: Rhizomucor miehei lipase propeptide (cleaved propeptide) (domain or fragment, UniProt P19515 30-94, looked up)
# chain: [pGlu]SNSTVDSLPPLIPSRTSAPSSSPSTTDPEAPAMSRNGPLPSDVETKYGMALNATSYPDSVVQAM
# modifications: also: N-glycosylation (GlcNAc after EndoH), site not given here, hexose at O-glycosylation site, site not given here
# Key:
# [1] = molecular target: T1, mature RmL (Rhizomucor miehei lipase) (Rhizomucor miehei, UniProt P19515); test: GLAD lipase assay: inhibition of mature RmL by propeptide; format: biochemical; conditions: isolated propeptide; RmL–propeptide molar ratio 1:64, 15 min incubation, 0.2 M HEPES, 1 mM CaCl2, 10 ppm Triton X-100, pH 8.5; substrate olive oil/4-methylumbelliferyl oleate on cellulose, detergent model B; room temperature; fluorescence 365/445 nm; Figure 4a
# T1 construct: mature RmL; 95–363; 29,537.7; 29,538.2; made in house; host or cells: Aspergillus oryzae
# T1 sequence (P19515 whole entry, looked up): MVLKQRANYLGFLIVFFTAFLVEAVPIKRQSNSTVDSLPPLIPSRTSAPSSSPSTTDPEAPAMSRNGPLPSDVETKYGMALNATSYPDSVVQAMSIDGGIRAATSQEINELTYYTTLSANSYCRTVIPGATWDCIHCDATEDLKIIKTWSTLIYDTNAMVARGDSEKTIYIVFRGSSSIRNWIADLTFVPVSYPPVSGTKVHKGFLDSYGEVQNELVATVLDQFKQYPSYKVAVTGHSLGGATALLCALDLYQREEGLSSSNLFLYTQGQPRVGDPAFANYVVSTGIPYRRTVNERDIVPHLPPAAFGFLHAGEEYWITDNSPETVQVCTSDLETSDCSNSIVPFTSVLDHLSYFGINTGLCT
# Method: Inhibition of hydrolytic activity was determined by using the industrially relevant GLAD assay, measuring the release of 4-methylumbelliferone (4-MU) by purified mature RmL incubated with and without a propeptide (RmL–propeptide incubated at a molar ratio of 1:64) for 15 min in 0.2 M HEPES, 1 mM CaCl2, and 10 ppm Triton X-100 (adjusted to pH 8.5). As a substrate, we used cellulose cotton linters, Avicel PH-101 (Sigma-Aldrich, 11365), uniformly coated with a 4.5:1 mixture of olive oil (Sigma-Aldrich, O-1514) and 4-methylumbelliferyl oleate (oleic acid 4-methylumbelliferyl ester (Sigma-Aldrich, 75164): 4 mg/mL in n-hexane (Sigma-Aldrich, 15671)). The coated cellulose fibers were suspended in 0.2 M HEPES, 3 mM CaCl2, 0.5 mM MgCl2, and 10 ppm Triton X-100 mixed with 3.3 g/L detergent solution using detergent model B (model B composition: 1% (w/w) NaOH, 7.2% (w/w) LAS, 3% (w/w) SLES, 5.5% (w/w) soy and coco fatty acids, 6.6% (w/w) AEO, 3.33% (w/w) triethanol amine, 2% (w/w) Na-citrate, 0.5% (w/w) DTMPA, 6% (w/w) MPG, 3% EtOH, 1.7% (w/w) glycerol, 1% (w/w) sodium formate, 0.1% (w/w) PCA; adjusted to pH 8.5) and RmL −/+ propeptide. The enzyme activity at room temperature was followed by measuring the fluorescence (kinetic mode) every 30 s at an excitation wavelength of 365 nm and emission wavelength of 445 nm from 1 to 6 min. […]
# [2] = Zymogram of native PAGE (lipase activity on olive oil plate); format: biochemical; conditions: native PAGE gel placed on agarose plate: 50 mM HEPES (pH 7), 0.625% polyvinyl alcohol, 1.9% (v/v) olive oil, 0.05% brilliant green; Figure 8C
# Source text: The compositions for native PAGE were as follows. Resolving gel: 12% acrylamide-bis-acrylamide; 0.4 M Tris (pH 8.8), 0.1% APS, 0.04% TEMED. Stacking gel: 5.1% acrylamide-bis-acrylamide; 0.25 M Tris (pH 6.8), 0.1% APS, 0.1% TEMED. Loading dye: 0.06 M Tris (pH 6.8), 0.01% bromophenol blue, 10% glycerol. Running buffer: 3 g/L Tris base, 14.4 g/L glycine. Gel (B) is stained with brilliant blue. Zymogram: After electrophoresis, the native PAGE was placed on an agarose/brilliant blue plate (4% Litex HSB agarose protein grade, 50 mM HEPES (pH 7), 0.625% polyvinyl alcohol, 1.9% (v/v) olive oil, and 0.05% brilliant green (Sigma)).
# [3] = molecular target: T2, mature Rhizomucor miehei lipase (Rhizomucor miehei, UniProt P19515 95-363); test: fluorescence polarisation; 0.9 uM A488-labelled peptide mixed with mature RmL at 0.0002-10 uM, in duplicate; 50 mM HEPES pH 7.5, 100 mM NaCl, 1 mM CaCl2; 30 min at room temperature; Langmuir 1:1 fit; conditions: both partners purified
# T2 sequence (looked up): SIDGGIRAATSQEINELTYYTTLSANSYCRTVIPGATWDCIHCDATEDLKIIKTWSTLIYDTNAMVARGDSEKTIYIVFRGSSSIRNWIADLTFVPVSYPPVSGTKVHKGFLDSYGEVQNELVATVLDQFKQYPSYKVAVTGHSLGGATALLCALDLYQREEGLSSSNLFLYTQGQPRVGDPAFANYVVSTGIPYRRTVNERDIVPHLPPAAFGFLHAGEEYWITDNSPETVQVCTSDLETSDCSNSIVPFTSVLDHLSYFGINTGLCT
# Rhizomucor miehei lipase = conditions: activity-related mutation in propeptide; cited from earlier work
# Source text: The buried surface area between the propeptide and the mature enzyme is ∼1771.2 Å^2 (analyzed using PISA,[23] corresponding to a strong protein–protein interaction).[24] The most significant interactions between the propeptide and mature enzyme from the PISA analysis are given in Table S1 (Supporting Information). One of these interactions involves Leu81, which is one of the activity-related mutations identified in ref ([17]) and is a part of the hydrophobic cluster at the ...
# [4] = molecular target: T2, mature Rhizomucor miehei lipase; test: crystal structure; wild-type ProRmL sample, 10 mg/mL; 30% PEG8K, 0.1 M Na-cacodylate pH 6.5, 0.2 M ammonium sulfate; 293 K; molecular replacement with 3TGL; conditions: both partners purified
molecule,measurement,setting,value
B1,inhibition of lipase activity,[1],clear inhibition of activity
B2,lipase activity in zymogram at the band corresponding to mature RmL,[2],much stronger in mature RmL than in wild-type ProRmL
SDVETKYGMALNATSYC(A488) [propeptide fragment SDVETKYGMALNATSYC-A488],Kd,[3],200 nM
B3,activity of the mutant,Rhizomucor miehei lipase,increased activity
B4,binding result,[4],binds
